Experiments:
[1] = target: T1, TvACTN-3r (alpha-actinin 3) (Trichomonas vaginalis, UniProt X5FVA1 1-1129); assay: Northwestern blot; REMSA: 20 uL, 0.2 ng 32P-RNA, 1 ug hIRP-1r or 50 ug T. vaginalis extract, 5 ug heparin, 10 min at 25 C, 6% native gel; buffer, salt and pH not given; Northwestern conditions not given; settings: protein: recombinant; label: 32P (alpha-32P UTP); hairpin
T1 sequence: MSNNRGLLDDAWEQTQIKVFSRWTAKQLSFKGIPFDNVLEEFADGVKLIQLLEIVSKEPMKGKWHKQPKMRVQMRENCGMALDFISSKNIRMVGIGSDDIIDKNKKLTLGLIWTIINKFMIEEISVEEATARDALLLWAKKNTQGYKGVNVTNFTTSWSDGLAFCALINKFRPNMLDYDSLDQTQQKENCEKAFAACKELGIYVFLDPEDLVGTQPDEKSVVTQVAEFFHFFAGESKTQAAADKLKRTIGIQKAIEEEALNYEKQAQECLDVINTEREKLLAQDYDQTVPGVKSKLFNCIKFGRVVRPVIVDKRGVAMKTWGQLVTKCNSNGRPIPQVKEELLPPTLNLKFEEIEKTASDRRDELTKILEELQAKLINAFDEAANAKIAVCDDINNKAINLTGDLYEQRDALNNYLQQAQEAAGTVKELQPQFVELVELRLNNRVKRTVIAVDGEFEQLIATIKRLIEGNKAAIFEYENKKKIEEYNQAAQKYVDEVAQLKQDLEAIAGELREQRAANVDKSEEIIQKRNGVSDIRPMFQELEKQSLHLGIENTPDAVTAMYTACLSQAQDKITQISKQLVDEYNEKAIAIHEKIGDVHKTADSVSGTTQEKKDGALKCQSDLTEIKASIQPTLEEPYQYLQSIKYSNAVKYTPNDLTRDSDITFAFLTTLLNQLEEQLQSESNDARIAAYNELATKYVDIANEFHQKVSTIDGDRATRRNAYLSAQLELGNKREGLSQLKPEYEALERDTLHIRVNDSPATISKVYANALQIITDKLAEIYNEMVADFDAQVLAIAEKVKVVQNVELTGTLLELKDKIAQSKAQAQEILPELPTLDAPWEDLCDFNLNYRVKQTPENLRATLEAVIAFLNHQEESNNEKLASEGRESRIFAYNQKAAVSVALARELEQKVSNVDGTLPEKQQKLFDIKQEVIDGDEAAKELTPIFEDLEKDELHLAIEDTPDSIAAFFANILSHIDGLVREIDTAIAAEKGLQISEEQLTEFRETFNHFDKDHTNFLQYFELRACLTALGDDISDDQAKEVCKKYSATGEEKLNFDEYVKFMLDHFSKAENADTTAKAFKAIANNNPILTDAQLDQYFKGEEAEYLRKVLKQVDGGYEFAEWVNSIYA

[2] = target: T2, hIRP-1r (iron regulatory protein 1) (human, UniProt P21399 1-889); assay: EMSA; 5 ug heparin; REMSA: 20 uL, 0.2 ng 32P-RNA, 1 ug hIRP-1r or 50 ug T. vaginalis extract, 5 ug heparin, 10 min at 25 C, 6% native gel; buffer, salt and pH not given; Northwestern conditions not given; settings: protein: recombinant; (pGEX plasmid); label: 32P (alpha-32P UTP); hairpin
T2 sequence: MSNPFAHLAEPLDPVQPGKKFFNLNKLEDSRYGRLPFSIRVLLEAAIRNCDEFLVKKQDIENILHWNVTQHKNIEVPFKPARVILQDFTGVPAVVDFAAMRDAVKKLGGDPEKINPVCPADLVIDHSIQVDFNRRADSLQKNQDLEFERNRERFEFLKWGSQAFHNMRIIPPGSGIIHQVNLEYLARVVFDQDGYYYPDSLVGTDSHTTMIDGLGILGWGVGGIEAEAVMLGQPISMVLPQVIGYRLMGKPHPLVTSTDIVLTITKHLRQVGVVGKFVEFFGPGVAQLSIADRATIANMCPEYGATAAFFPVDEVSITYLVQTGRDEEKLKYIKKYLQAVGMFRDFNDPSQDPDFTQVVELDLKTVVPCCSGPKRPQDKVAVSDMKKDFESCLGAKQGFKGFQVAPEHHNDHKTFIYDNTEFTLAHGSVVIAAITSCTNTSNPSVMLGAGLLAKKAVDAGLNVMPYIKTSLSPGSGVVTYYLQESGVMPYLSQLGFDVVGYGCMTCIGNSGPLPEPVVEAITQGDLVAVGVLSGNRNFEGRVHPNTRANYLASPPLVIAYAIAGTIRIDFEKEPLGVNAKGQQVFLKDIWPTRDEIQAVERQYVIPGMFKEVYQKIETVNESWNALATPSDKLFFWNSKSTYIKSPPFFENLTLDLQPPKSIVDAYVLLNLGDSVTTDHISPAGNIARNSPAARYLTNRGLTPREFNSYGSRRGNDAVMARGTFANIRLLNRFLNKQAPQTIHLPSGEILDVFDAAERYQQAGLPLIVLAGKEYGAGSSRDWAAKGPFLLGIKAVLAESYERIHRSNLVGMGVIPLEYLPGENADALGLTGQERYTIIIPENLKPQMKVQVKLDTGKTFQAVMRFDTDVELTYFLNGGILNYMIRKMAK

What does the source list for GGGACGUAUUUAAUUGAUUGCG (structured_RNA) [IRE-tvcp12 (wild type)]?
binding result [1]: binds; binding result [2]: binds
